The values below are quoted from earlier work in article PMC12115143.

Series [1] addresses AHP2 (Arabidopsis thaliana) (UniProt Q9ZNV8).
The target in series [2] is AHP1 (Arabidopsis thaliana) (UniProt Q9ZNV9).
Sequence of UniProt Q9ZNV9 (Q9ZNV9 whole entry): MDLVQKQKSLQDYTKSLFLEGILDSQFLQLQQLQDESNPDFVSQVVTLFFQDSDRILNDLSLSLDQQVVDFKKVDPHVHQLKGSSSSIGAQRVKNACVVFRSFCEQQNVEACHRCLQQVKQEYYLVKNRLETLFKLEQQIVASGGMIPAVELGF

Sequence of UniProt Q9ZNV8 (Q9ZNV8 whole entry): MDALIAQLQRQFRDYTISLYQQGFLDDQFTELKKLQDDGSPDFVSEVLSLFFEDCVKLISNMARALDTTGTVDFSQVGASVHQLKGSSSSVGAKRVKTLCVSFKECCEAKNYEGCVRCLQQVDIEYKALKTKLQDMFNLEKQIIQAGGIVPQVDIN

The term Kd denotes the equilibrium constant for the complex coming apart. Consider AHK1 (from UniProt Q9SXL4), for which, in series [1], the Kd is 300 nM.

Regarding ETR1 (from UniProt P49333), the Kd in series [2] was 1500 nM.
